From patent publication US8008547B2, “Glyphosate-N-acetyltransferase (GAT) genes” (E.I. duPont de Nemours, priority 2000, dated 2011)

Columns and labels:
[1] = Standard protocol for determination of kcat and KM (continuous spectrophotometric assay, Acetyl CoA hydrolysis at 235 nm); format: biochemical; details: purified protein, about 23° C., 0.2 mM acetyl CoA; for Kcat: 20 mM HEPES pH 6.8, 10% ethylene glycol; for Km: pH 6.8, glyphosate 0.125 to 10 mM
Summary of the method: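 KM from initial rates over 0.125–10 mM glyphosate, fitted by Lineweaver-Burke transformation of Michaelis-Menten; kcat/KM computed as kcat divided by KM. Continuous spectrophotometric read of acetyl-CoA hydrolysis at 235 nm.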

[2] = Transfer of the propionyl group from propionyl CoA to glyphosate (DTNB); format: biochemical; details: 1 mM propionyl CoA, 5 mM glyphosate or no glyphosate, 30 minutes
Experimental: The ability of GAT variants (B6 (SEQ ID NO:7), 0—6D10 (SEQ ID NO:448), 17-15H3 (SEQ ID NO:601), and 20-8H12 (SEQ ID NO:816)) to transfer the propionyl group from propionyl CoA to glyphosate was tested in reaction mixtures containing 5 mM glyphosate or no glyphosate. Propionyl CoA was present at 1 mM. After 30 minutes the reactions were terminated and the presence of free […] was determined by the addition of DTNB.

soybean plants = assay: Greenhouse glyphosate spray of T0 soybean plants expressing GAT transgenes (discoloration score); format: in vivo; details: for number of events @ 3-6 / number of events @ 7-8: count in parentheses
Experimental: Soybean plants expressing GAT variant transgenes were produced using the method of particle gun bombardment (see Klein et al. (1987) Nature 327:70-73) using a DuPont Biolistic PDS1000/He instrument. The selection agent used during the transformation process was hygromycin. Either the hygromycin selectable marker gene remained in the transgenic events or the hygromycin gene was excised by methods known in the art. DNA fragments were prepared with a synthetic constitutive promoter, a GAT variant and PinII terminator. The selectable marker gene, comprising the 35S CaMV promoter, HPT gene and NOS terminator, was cobombarded with the GAT gene variant as described above. Bombarded soybean embryogenic suspension tissue was cultured for one week in the absence of selection agent. Embryogenic suspension tissue was placed in liquid selection medium for 6 weeks. Putative transgenic suspension tissue was sampled for PCR analysis to determine the presence of the GAT gene. Putative transgenic suspension culture tissue was maintained in selection medium for 3 weeks to obtain enough tissue for plant regeneration. Suspension tissue was matured for 4 weeks using standard procedures; matured somatic embryos were desiccated for 4-7 days and then placed on germination induction medium for 2-4 weeks. Germinated plantlets were transferred to soil in cell pack trays for 3 weeks for acclimatization. Plantlets were potted to 10-inch pots in the greenhouse for evaluation of glyphosate resistance.
To determine the level of glyphosate resistance of transgenic soybeans expressing the GAT variant transgenes, T0 plants were sprayed with glyphosate (Roundup ULTRA MAX™) in the greenhouse. Plant resistance levels were evaluated by […] • 7=minor leaf/stem discoloration • 5=worse leaf/stem discoloration • 3=severely discolored plant or dying plant • 1=dead plant
One to four plants were sent to the greenhouse from each independent transgenic event. An additional 1-2 plants per event were grown in controlled environment growth chambers for seed production and were not sprayed with glyphosate. The greenhouse plants were sprayed at 1×, 2× or 4× glyphosate (1× glyphosate=26 ounces/acre of RoundUp ULTRA MAX™) 3-4 weeks after transfer to soil. The T0 plant discoloration scores with 2× and 4× spray rates are shown in Table 10 and Table 11, respectively.

tobacco plants = assay: Herbicide spray tests of GAT expressing tobacco plants; format: in vivo, Nicotiana tabacum; details: transgenic GAT tobacco; for plant response two weeks after glyphosate spray: 0.5, 2 or 4× glyphosate (1× = 32 oz/acre of 40% ai); for survival after second spray: 8× glyphosate dose three weeks later
Experimental: Tobacco shoots generated as described in EXAMPLE 9 were excised from the explants and transferred to basal root induction (BRI) medium composed of half-strength Murashige and Skoog (MS) medium, pH 5.7, with 1.5% sucrose, 0.3% Gelrite, 0-200 uM glyphosate and 400 ug/ml Timentin. Rooted plants and axillary shoots were clonally propagated by cutting the stem and transferring it to fresh BRI medium until the desired number of clones was obtained. Rooted plants were carefully removed from the solid medium. Prior to placing the plants into small pots of soil, the roots were washed to remove any remaining Gelrite. A protective plastic cover was kept over the plants for at least one week until the plants were well established.
To determine if GAT expressing tobacco plants could tolerate simulated field rate sprays of glyphosate, clonal lines of several events per GAT variant were tested. A typical test was set up as follows: One clone from each event was sprayed with 1 ml of solution containing the isopropylamine salt of glyphosate (Sigma P5671) and 0.125% Triton X-100, pH 6.8 such that the amount of active ingredient sprayed was equivalent to that present in commercial glyphosate products. For example, to achieve 32 oz/acre (1×) of herbicide containing 40% active ingredient (“ai”), 2.4 ul of 40% ai formulation was diluted into 1 ml water and sprayed on a plant in a 4-inch square pot (16 in^2). A mock application (0×) with surfactant only was also included. In some cases a second spray was applied 1-4 weeks later. Plants were kept in controlled growth rooms at 25° C. and 70% humidity with 16 hr light.
Seed-grown wild type plants were also sprayed. […] All 0× plants were healthy, including the non-GAT control plants. Three weeks later all of the surviving plants were sprayed with an 8× dose.

[3] = 10 days after 2X glyphosate (1× = 26 ounces/acre), 7=minor leaf/stem discoloration
[4] = 10 days after 2X glyphosate, 5=worse discoloration, 3=severely discolored or dying

B1: SEQ ID NO: 448: GAT polypeptide (protein)
chain: MLEVKPINAEDTYELRHKILRPNQPLEVCMYETDLLRGAFHLGGFYRGKLISIASFHQAEHSDLQGQKQYQLRGMATLEGYRDQKAGSSLIRHAEQILRKRGADMLWCNARTSASGYYKKLGFSEQGEVFETPPVGPHILMYKRLT
modifications: 0_6D10
notes: GAT polypeptide
Kcat [1]: 1.85 s⁻¹
transfer of propionyl group to glyphosate [2]: glyphosate-dependent hydrolysis of propionyl CoA

B2: SEQ ID NO: 824: GAT gene variant expressed in transgenic soybean (nucleic acid)
DNA: ATGATAGAGGTGAAACCGATTAACGCAGAGGATACCTATGAACTAAGGCATAGAATACTCAGACCAAACCAGCCGATAGAAGCGTGTATGTTTGAAAGCGATTTACTTCGTGGTGCATTTCACTTAGGCGGCTTTTACAGGGGCAAACTGATTTCCATAGCTTCATTCCACCAGGCCGAGCACTCGGAACTCCAAGGCCAGAAACAGTACCAGCTCCGAGGTATGGCTACCTTGGAAGGTTATCGTGAGCAGAAAGCGGGATCAACTCTAGTTAAACACGCTGAAGAAATCCTTCGTAAGAGGGGGGCGGACATGCTTTGGTGTAATGCGAGGACATCCGCCTCAGGCTACTACAAAAAGTTAGGCTTCAGCGAGCAGGGAGAGATATTTGACACGCCGCCAGTAGGACCTCACATCCTGATGTATAAAAGGATCACATAA
modifications: Synthetic DNA Sequence; CDS (1)...(441); 18-28D9c
notes: GAT gene variant expressed in transgenic soybean
% EVENTS @ 7-8 (soybean plants; [3]): 8%
% EVENTS @ 3-6 (soybean plants; [4]): 74%
number of events @ 3-6 (soybean plants; 10 days after 2X glyphosate): 23
number of events @ 7-8 (soybean plants; 10 days after 2X glyphosate): 3
% EVENTS @ 3-6 (soybean plants; 10 days after 4X glyphosate): 43%
% EVENTS @ 7-8 (soybean plants; 10 days after 4X glyphosate): 8%
number of events @ 3-6 (soybean plants; 10 days after 4X glyphosate): 10
number of events @ 7-8 (soybean plants; 10 days after 4X glyphosate): 2

B3: SEQ ID NO: 356: GAT polypeptide (protein)
chain: MIEVKPINAEDTYEIRHRILRPNQPLEACMFETDLLGGAFHLGGYYQGKLISIASFHQAEHSELEGQKQYQLRGMATLEGYREQKAGSTLIRHAEELLRKKGADLLWCNARTSVSGYYKKLGFSEQGEVYDIPPIGPHILMYKKLT
modifications: 30G8
notes: GAT polypeptide
Kcat [1]: 0.17 s⁻¹
Km [1]: 1600 µM

B4: SEQ ID NO: 266: GAT polypeptide (protein)
chain: MIEVKPINAEDTYEIRHRILRPNQPLEACKYETDLLRGAFHLGGYYRGKLVSIASFHQAEHPELEGQKQYQLRGMATLEGYREQKAGSTLIRHAEELLRKKGADLLWCNARTSASGYYKKLGFSEQGEVYDTPPTGPHILMYKKLT
modifications: 14_2C1
notes: GAT polypeptide
Kcat [1]: 2.223 s⁻¹
Km [1]: 3100 µM

B5: SEQ ID NO: 190: evolved GAT gene (nucleic acid)
DNA: ATGATAGAGGTGAAACCGATTAACGCAGAGGATACCTATGAACTAAGGCATAAAATACTCAGACCAAACCAGCCGATAGAAGCGTGTATGTATGAAAGCGATTTACTTCGTGGTGCATTTCACTTAGGCGGCTTTTACAGGGGCAAACTGATTTCCATAGCTTCATTCCACCAGGCCGAGCACTCAGACCTCCAAGGCCAGAAACAGTACCAGCTCCGAGGTATGGCTACCTTGGAAGGTTATCGTGATCAGAAAGCGGGATCGAGTCTAATTAGACACGCTGAACAAATTCTTCGTAAGAGGGGGGCGGACTTGCTTTGGTGCAATGCGCGGACATCCGCCTCAGGCTACTACAAAAAGTTAGGCTTCAGCGAGCAGGGAGAGATATTTGATACGCCGCCAGTAGGACCTCACATCCTGATGTATAAAAGGCTCACA
modifications: Synthetic DNA Sequence; 0_5B8
notes: evolved GAT gene
plant response two weeks after glyphosate spray (tobacco plants): survived the spraying procedure without signs of glyphosate damage
survival after second spray (tobacco plants): all GAT plants survived

B6: SEQ ID NO: 193: GAT gene variant (nucleic acid)
DNA: ATGCTAGAGGTGAAACCGATTAACGCAGAGGATACCTATGAACTAAGGCATAGAATACTCAGACCAAACCAGCCGATAGAAGCGTGTATGTATGAAAGCGATTTACTTCGTGGTGCATTTCACTTAGGCGGCTATTACAGGGGCAAACTGATTTCCATAGCTTCATTCCACCAGGCCGAGCACTCAGAACTCCAAGGCCAGAAACAGTACCAGCTCCGAGGTATGGCTACCTTGGAAGGTTATCGTGAGCAGAAAGCGGGATCGAGTCTAATTAAACACGCTGAAGAAATTCTTCGTAAGAGGGGGGCGGACTTGCTTTGGTGTAATGCGCGGACATCCGCCTCAGGCTACTACAAAAAGTTAGGCTTCAGCGAGCAGGGAGAGATATTTGAAACGCCGCCAGTAGGACCTCACATCCTGATGTATAAAAGGATCACATAA
modifications: Synthetic DNA Sequence; 0_5D3
notes: GAT gene variant
plant response two weeks after glyphosate spray (tobacco plants): survived the spraying procedure without signs of glyphosate damage
survival after second spray (tobacco plants): all GAT plants survived
% EVENTS @ 7-8 (soybean plants; [3]): 15%
% EVENTS @ 3-6 (soybean plants; [4]): 11%
number of events @ 3-6 (soybean plants; 10 days after 2X glyphosate): 3
number of events @ 7-8 (soybean plants; 10 days after 2X glyphosate): 4

B7: SEQ ID NO:601: GAT variant polypeptide (protein)
chain: MIEVKPINAEDTYELRHRILRPNQPIEACMFESDLLRGAFHLGGYYGGKLISIASFHQAEHSELQGQKQYQLRGMATLEGYREQKAGSSLIKHAEEILRKRGADLLWCNARTSASGYYKKLGFSEQGEVFDTPPVGPHILMYKRIT
modifications: D_S00260796_17-15H3
notes: GAT variant polypeptide
transfer of propionyl group to glyphosate [2]: glyphosate-dependent hydrolysis of propionyl CoA

B8: SEQ ID NO:816: GAT variant (protein)
chain: MIEVKPINAEDTYELRHRVLRPNQPIEACIFESDLMRGAFHLGGFYGGRLISVASFHQAEHSELQGQKQYQLRGMATLEGYREQKAGSSLVKHAEEILRKRGADLLWCNARTSASGYYKKLGFSEQGEVFDTPPVGPHILMYKRIT
modifications: Synthetic DNA Sequence; CDS (1)...(441); 20-8H12c
notes: GAT variant
transfer of propionyl group to glyphosate [2]: glyphosate-dependent hydrolysis of propionyl CoA
